Laboratory results: PMC7910268

How the values were obtained:
purified protein [1] = substrate: NC(=O)c1ccc[n+]([C@@H]2O[C@H](COP(=O)(O)OP(=O)(O)OC[C@H]3O[C@@H](n4cnc5c(N)ncnc54)[C@H](O)[C@@H]3O)[C@@H](O)[C@H]2O)c1; test: purified protein; format: biochemical, Sphingopyxis fribergensis; conditions: phenylacetaldehyde 0.5 mmol L^-1, pH 7.7, aldehyde made from styrene oxide by SOI-1CP, varied: cofactor
purified protein [2] = substrate: O=CCc1ccccc1; test: purified protein; format: biochemical, Sphingopyxis fribergensis; conditions: NAD+ 2.5 mmol L^-1, pH 7.7, aldehyde made from styrene oxide by SOI-1CP

B1: FeaB-Kp5.2 (Sphingopyxis fribergensis) (protein)
chain: MATAQSYVTPLSAVSTFIGHDHGLFIDGDWRAAKGTERLDVFDPSTGEPIASVANASPDDVDHAVRAAHKAFESGVWSGIAPAERERLLLKFADLVEANAEELAQIETLNQGKSINISRFVDVGGAPAYMRYVAGLTTKITGETFDVSIGAIPGARFTASTRREPIGVVGAIAPWNFPMMIGLWKIMPALAAGCTVVLKPSEVTPLTSLRLASLAKEAGLPAGVLNVITGDGKAGKALVDHPLVAKITFTGSTATGKAIARSASDRLLRTSLELGGKNPAIFLADAPIEQAVQGAILGGFFNNGQVCAASSRLYIARAIYDPFIKALAHAVDGMTMGPGLDTAAQINPVVSLQHRAKILDHIARARQDGAQIVAGGESPDRAGYYVRPTVVVGAGAQLAISRQEVFGPLVTVTPFDDEDEAINLANDTEMGLTASLWTNDLKKTMDLVPRIKAGTVWVNCHNLIDPNMPFGGYKESGIGRDFGIHSLDGYSEVKSVCIAH
Purified protein [1]
  Km: 500 ± 300 µM
  Vmax: 17.8 µmol/min/mg
  kcat: 62.5 s⁻¹
Purified protein [2]
  Km: 22 ± 5 µM
  Vmax: 14.8 µmol/min/mg
  kcat: 52 s⁻¹
